# Source: publication PMC11592144, “Biochemical Characterization of an Arabinoside Monophosphate Specific 5′-Nucleotidase-like Enzyme from Streptomyces antibioticus” (Biomolecules, 2024)
# B1: PenF (Streptomyces antibioticus) (protein)
# chain: MVTLPDRVRAHVLADFATADPAHDIHHLDRVAALAGDIAVLLGADPQTAQVAAYVHDYHRVEEARQGRRPIRPEEARSAVLDVLERSEVPEKLHGTILRAVELTGRYRFGGDELDGEDLIAAAVHDADNLDAMGAVGVGRAFAFGGLLGEPLWEPAAGLKELYTEGETSSVLAHLYEKLVHLEKDMLTEPARRLAAERAFQLHRFAAEFRSQWGEEDVVSHSGGTRVHWDPLTRFLAVTQPEPDGITVTHIGFRGQAMLAFDEQGQPVGVDLLGAPEALTHCVPHAQRSRAWVADAAGGWLLDAEADVVWISISEAPVRRRLTAVGDIEVQLREGKLATLRMHLTEEAPVSVGGEGAP
# notes: codon-optimized penF in pET28a (NdeI/XhoI), C-terminal His6 tag, E. coli BL21(DE3), Ni-NTA; about 42 kDa by MALDI-TOF (45 kDa SDS-PAGE)
# What was measured:
# [1] = substrate: Nc1ncnc2c1ncn2[C@@H]1O[C@H](COP(=O)(O)O)[C@@H](O)[C@@H]1O; assay: HPLC of Ara-A formation, Lineweaver-Burk; assay type: biochemical, Streptomyces antibioticus; settings: 50 mM HEPES pH 7.5, 1 mM MgCl2, 0.01-1.5 mM substrate, 0.2 mg/mL PenF
# Description: HPLC of Ara-A formation, Lineweaver-Burk on PenF
# [2] = substrate: Nc1ncnc2c1ncn2[C@H]1C[C@H](O)[C@@H](COP(=O)(O)O)O1; assay: HPLC of deoxyadenosine formation, Lineweaver-Burk; assay type: biochemical, Streptomyces antibioticus; settings: 50 mM HEPES pH 7.5, 1 mM MgCl2, 0.2-2.5 mM substrate, 0.2 mg/mL PenF
# Description: HPLC of deoxyadenosine formation, Lineweaver-Burk on PenF
protein,measurement,setting,value
B1,Km,[1],71.5 µM
same,Vmax,[1],170 µM/min
same,kcat,[1],0.565 s⁻¹
same,kcat/Km,[1],7900 M⁻¹ s⁻¹
same,Km,[2],344 µM
same,Vmax,[2],11.9 µM/min
same,kcat,[2],0.04 s⁻¹
same,kcat/Km,[2],117 M⁻¹ s⁻¹
